{"source": "paper PMC3268815", "about": "(Nature, 2011)", "binders": {"B1": {"name": "M1^BC1 (M1 fragment with B-repeats, S-region and first C-repeat) (domain or fragment, UniProt Q99XV0 128-263, looked up)", "chain": "WDRQRLEKELEEKKEALELAIDQASRDYHRATALEKELEEKKKALELAIDQASQDYNRANVLEKELETITREQEINRNLLGNAKLELDQLSSEKEQLTIEKAKLEEEKQISDASRQSLRRDLDASREAKKQVEKDL"}, "B2": {"name": "selenomethionine-substituted M1^BC1(I148M) (domain or fragment, UniProt Q99XV0 128-263, looked up)", "chain": "B1 chain with I21M", "modifications": "selenomethionine-substituted"}, "B3": {"name": "M1 B2C (residues 162-189 deleted and inserted after C-terminal residue 453) (natural protein, UniProt Q99XV0 42-453, looked up)", "chain": "NGDGNPREVIEDLAANNPAIQNIRLRYENKDLKARLENAMEVAGRDFKRAEELEKAKQALEDQRKDLETKLKELQQDYDLAKESTSWDRQRLEKELEEKKEALELAIDQASRDYHRATALEKELETITREQEINRNLLGNAKLELDQLSSEKEQLTIEKAKLEEEKQISDASRQSLRRDLDASREAKKQVEKDLANLTAELDKVKEDKQISDASRQGLRRDLDASREAKKQVEKDLANLTAELDKVKEEKQISDASRQGLRRDLDASREAKKQVEKALEEANSKLAALEKLNKELEESKKLTEKEKAELQAKLEAEAKALKEQLAKQAEELAKLRAGKASDSQTPDTKPGNKAVPGKGQAPQAGTKPNQNKAPMKETKRQLPSTEKELEEKKKALELAIDQASQDYNRANVL"}}, "key": {"crystal structure": {"molecular_target": "the molecule itself", "test": "crystal structure"}, "fibrinogen fragment D [1]": {"molecular_target": "T1, fibrinogen fragment D (human, UniProt P02671 130-216; P02675 164-491; P02679 114-432)", "T1 sequence 1": "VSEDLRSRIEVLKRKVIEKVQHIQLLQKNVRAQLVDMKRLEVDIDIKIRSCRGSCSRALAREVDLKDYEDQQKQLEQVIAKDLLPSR", "T1 sequence 2": "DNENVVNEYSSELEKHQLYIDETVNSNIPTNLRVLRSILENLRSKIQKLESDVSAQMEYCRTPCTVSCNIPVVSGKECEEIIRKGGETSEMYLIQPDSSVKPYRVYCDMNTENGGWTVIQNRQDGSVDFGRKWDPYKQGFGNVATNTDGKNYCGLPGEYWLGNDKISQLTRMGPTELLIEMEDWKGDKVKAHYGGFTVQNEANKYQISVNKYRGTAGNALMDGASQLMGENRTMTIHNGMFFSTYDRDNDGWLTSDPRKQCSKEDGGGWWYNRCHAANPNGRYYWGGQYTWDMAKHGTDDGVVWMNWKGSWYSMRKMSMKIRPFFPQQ", "T1 sequence 3": "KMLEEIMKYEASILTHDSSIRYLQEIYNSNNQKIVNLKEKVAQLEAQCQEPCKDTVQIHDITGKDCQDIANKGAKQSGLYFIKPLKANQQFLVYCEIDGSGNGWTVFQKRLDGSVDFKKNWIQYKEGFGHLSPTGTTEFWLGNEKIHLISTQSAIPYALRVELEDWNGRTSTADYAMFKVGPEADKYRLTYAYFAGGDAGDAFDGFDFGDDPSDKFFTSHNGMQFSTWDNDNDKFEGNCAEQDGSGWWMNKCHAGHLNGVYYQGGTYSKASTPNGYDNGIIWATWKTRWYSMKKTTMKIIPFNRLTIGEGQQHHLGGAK", "test": "crystal structure"}, "fibrinogen fragment D [2]": {"molecular_target": "T1, fibrinogen fragment D", "test": "pull-down"}}, "note": "Changes are numbered by the printed parent chain. Names may count otherwise."}
{"binder": "B1", "values": [{"measurement": "stoichiometry N", "setting": "crystal structure", "value": 2}]}
{"binder": "B2", "values": [{"measurement": "binding result", "setting": "fibrinogen fragment D [1]", "value": "binds"}]}
{"binder": "B3", "values": [{"measurement": "binding result", "setting": "fibrinogen fragment D [2]", "value": "binds"}]}
